In the Human Domainome abundance scans (Beltran et al. 2025):
± gives the uncertainty stated by the source.

B1: TOX high mobility group box family member 3, residues 256 to 323; numbered along this chain, O15405 (parent)
chain: QKPVSAYALFFRDTQAAIKGQNPNATFGEVSKIVASMWDSLGEEQKQVYKRKTEAAKKEYLKALAAYR
B2: POU domain, class 3, transcription factor 1, residues 247 to 324; numbered along this chain, Q03052 (parent)
chain: EDAPSSDDLEQFAKQFKQRRIKLGFTQADVGLALGTLYGNVFSQTTICRFEALQLSFKNMCKLKPLLNKWLEETDSSS

Variants of: B1
Assay: abundance fitness (aPCA) (normalised: wild type 0, dead -1); higher = more abundant; growth selection in yeast, the domain comes from the species named
Conditions: Homo sapiens

Variant	abundance fitness
K58L	-0.135 ± 0.057
K58S	-0.051 ± 0.066
K58M	-0.078 ± 0.066
K2H	-0.012 ± 0.12
K2A	-0.264 ± 0.076
K2R	-0.273 ± 0.064
K2D	-0.311 ± 0.14
V4Y	-0.24 ± 0.097
V4N	0.02 ± 0.1
V4I	0.091 ± 0.072
L64C	0.153 ± 0.066
L64H	0.285 ± 0.085
L64M	-0.031 ± 0.15
N22A	-0.476 ± 0.095
N22Y	-0.121 ± 0.11
N22H	0.037 ± 0.085
N22E	-0.443 ± 0.14
S31C	-0.163 ± 0.072
S31Y	-0.162 ± 0.12
S31F	-0.664 ± 0.12
S31I	-0.583 ± 0.15
I18W	-0.692 ± 0.16
I18F	-0.746 ± 0.16

Variant	abundance fitness
I18G	-0.966 ± 0.18
I18S	-0.682 ± 0.1
I18E	-0.837 ± 0.19
I18A	-0.607 ± 0.13
M37L	-0.219 ± 0.047
M37V	-0.317 ± 0.064
M37T	-0.036 ± 0.075
V30H	-0.823 ± 0.21
V30S	-0.635 ± 0.099
Q15E	-0.065 ± 0.066
Q15A	-0.512 ± 0.15
Q15F	0.022 ± 0.086
Q15K	-0.109 ± 0.091
Q15M	-0.068 ± 0.078
P23L	-0.689 ± 0.085
P23W	-0.94 ± 0.14
P23V	-0.677 ± 0.11
K57G	-0.125 ± 0.053
K57P	-0.165 ± 0.065
K57N	0.042 ± 0.077
K57D	0.025 ± 0.063
K57Y	-0.282 ± 0.091
K52C	-0.547 ± 0.086

Variant	abundance fitness
K52V	-0.584 ± 0.072
K52D	-0.404 ± 0.078
L41M	0.09 ± 0.079
L41Q	-0.718 ± 0.2
L41C	-0.592 ± 0.11
L41I	-0.187 ± 0.15
L41D	-0.847 ± 0.34
L41V	-0.29 ± 0.086
I33F	-0.5 ± 0.25
I33N	-0.329 ± 0.094
I33A	-0.104 ± 0.05
I33T	0.021 ± 0.061
G28K	-0.027 ± 0.073
G28H	-0.026 ± 0.098
G28R	0.118 ± 0.04
G28I	-0.076 ± 0.23
G28E	0.175 ± 0.075
G28C	-0.046 ± 0.079
R51E	0.222 ± 0.079
R51H	-0.018 ± 0.054
R51A	-0.031 ± 0.049
R51N	-0.017 ± 0.052
R51Y	-0.199 ± 0.096

Variant	abundance fitness
E59C	-0.366 ± 0.15
E59P	-0.061 ± 0.085
E59M	-0.51 ± 0.16
E59T	-0.083 ± 0.1
E59H	-0.744 ± 0.34
E59W	-0.573 ± 0.085
E59I	-0.663 ± 0.33
Y7T	-0.679 ± 0.11
Y7L	-0.547 ± 0.075
Y7C	-0.585 ± 0.19
Y7E	-0.263 ± 0.11
Y7Q	-0.212 ± 0.12
E29M	-0.564 ± 0.12
E29K	-0.534 ± 0.15
E29Y	-0.372 ± 0.095
E29N	-0.543 ± 0.12
E29W	-0.158 ± 0.17
E29G	-0.959 ± 0.22
A25Y	-0.058 ± 0.071
A25C	-0.369 ± 0.079
A25W	-0.492 ± 0.26
A25M	-0.212 ± 0.086
A17M	-0.169 ± 0.098

Variant	abundance fitness
A17T	0.035 ± 0.062
A17V	0.017 ± 0.064
A17H	-0.044 ± 0.13
A17P	-0.472 ± 0.1
A17N	-0.185 ± 0.16
R12E	0.054 ± 0.1
R12C	-0.457 ± 0.16
R12I	-0.221 ± 0.11
R12N	0.168 ± 0.093
R12S	-0.113 ± 0.064
R12V	-0.433 ± 0.1
R12T	-0.146 ± 0.11
F11P	-1.17 ± 0.24
F11K	-0.205 ± 0.091
T26Y	-0.957 ± 0.26
T26A	-0.25 ± 0.068
T26C	-0.275 ± 0.064
Q47P	-0.812 ± 0.12
Q47E	-0.052 ± 0.1
Q47F	-0.445 ± 0.14
Q47V	-0.033 ± 0.086
Q47D	0.033 ± 0.12
Q47T	-0.42 ± 0.14

Variants of: B2
Assay: as above
Conditions: Homo sapiens

Variant	abundance fitness
D2T	0.459 ± 0.086
D2I	0.413 ± 0.15
D2Q	0.267 ± 0.15
D2P	0.252 ± 0.11
D2E	0.41 ± 0.068
D2L	0.151 ± 0.066
D2Y	0.197 ± 0.13
D2A	0.217 ± 0.066
D2V	0.171 ± 0.059
D2S	0.453 ± 0.08
D2F	0.166 ± 0.1
D2G	0.411 ± 0.05
D2N	0.256 ± 0.091
D2M	0.342 ± 0.082
D2W	0.001 ± 0.08
D2R	0.312 ± 0.048
D2K	0.452 ± 0.087
D2C	0.081 ± 0.13
D2H	0.29 ± 0.11
A3S	0.238 ± 0.057
A3C	0.172 ± 0.11
A3V	-0.08 ± 0.07
A3M	0.363 ± 0.071
A3T	0.238 ± 0.053
A3L	0.362 ± 0.059
A3D	-0.164 ± 0.14

Variant	abundance fitness
A3R	0.222 ± 0.049
A3H	0.258 ± 0.15
A3N	0.444 ± 0.11
A3Q	0.327 ± 0.08
A3P	0.051 ± 0.087
A3W	0.098 ± 0.062
A3E	-0.049 ± 0.08
A3F	0.281 ± 0.12
A3G	-0.053 ± 0.063
E1V	0.103 ± 0.067
E1W	0.144 ± 0.12
E1S	0.126 ± 0.1
E1C	0.281 ± 0.41
E1M	0.319 ± 0.1
E1Y	0.05 ± 0.21
E1G	-0.031 ± 0.06
E1A	-0.211 ± 0.11
E1D	0.359 ± 0.11
E1Q	0.209 ± 0.14
E1N	-0.013 ± 0.16
E1T	0.088 ± 0.14
E1R	0.102 ± 0.099
E1I	0.3 ± 0.14
E1F	0.118 ± 0.3
E1K	0.066 ± 0.16
E1L	0.135 ± 0.086
